Target: GFP-ABCG4 (UniProt Q9H172-1 1-646)
Test: co-IP; HEK293 co-transfected with the GFP-tagged and the untagged protein (untagged in excess), lysed 24 h after transfection in 50 mM Tris pH 7.4, 150 mM NaCl, 0.5% NP-40; precipitated with anti-GFP on protein G-sepharose, 2 h at 4°C; Western blot of the precipitate
Conditions: partners not purified

Chain of GFP-ABCG4 (Q9H172 whole entry): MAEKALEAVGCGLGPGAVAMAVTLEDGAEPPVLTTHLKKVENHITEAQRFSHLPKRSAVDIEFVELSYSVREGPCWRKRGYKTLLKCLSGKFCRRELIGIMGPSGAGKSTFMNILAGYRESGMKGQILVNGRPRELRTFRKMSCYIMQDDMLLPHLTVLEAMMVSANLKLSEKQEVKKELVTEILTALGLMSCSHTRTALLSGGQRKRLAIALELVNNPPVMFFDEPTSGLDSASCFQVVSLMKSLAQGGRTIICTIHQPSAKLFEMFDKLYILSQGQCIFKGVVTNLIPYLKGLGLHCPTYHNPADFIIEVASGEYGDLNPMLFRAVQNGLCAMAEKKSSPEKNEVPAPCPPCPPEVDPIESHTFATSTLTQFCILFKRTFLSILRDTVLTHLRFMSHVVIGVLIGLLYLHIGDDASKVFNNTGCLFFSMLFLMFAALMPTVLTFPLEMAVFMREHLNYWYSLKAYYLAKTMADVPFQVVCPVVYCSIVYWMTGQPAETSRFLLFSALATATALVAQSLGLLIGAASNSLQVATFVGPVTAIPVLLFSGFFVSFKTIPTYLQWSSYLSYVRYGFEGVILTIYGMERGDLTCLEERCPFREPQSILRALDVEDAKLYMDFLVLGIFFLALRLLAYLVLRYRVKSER

stoichiometry N: ~1
B1: ABCG4 (wild type, untagged) (natural protein)
chain: not shown
notes: the whole cDNA was probably expressed; also called wt ABCG4; source: HEK293, transfected (Fugene HD), in lysate

From PMC4882005, “Functional Cooperativity between ABCG4 and ABCG1 Isoforms” (PLoS ONE, 2016)
